{"source": "paper PMC3045100", "about": "“Cell-Penetrating Penta-Peptides (CPP5s): Measurement of Cell Entry and Protein-Transduction Activity” (Pharmaceuticals, 2010)", "molecules": {"B1": {"name": "Cre: His-tagged recombinant Cre DNA recombinase without TAT or CPP5s (protein, UniProt P06956 1-343, looked up)", "Recombinase cre": "MSNLLTVHQNLPALPVDATSDEVRKNLMDMFRDRQAFSEHTWKMLLSVCRSWAAWCKLNNRKWFPAEPEDVRDYLLYLQARGLAVKTIQQHLGQLNMLHRRSGLPRPSDSNAVSLVMRRIRKENVDAGERAKQALAFERTDFDQVRSLMENSDRCQDIRNLAFLGIAYNTLLRIAEIARIRVKDISRTDGGRMLIHIGRTKTLVSTAGVEKALSLGVTKLVERWISVSGVADDPNNYLFCRVRKNGVAAPSATSQLSTRALEGIFEATHRLIYGAKDDSGQRYLAWSGHSARVGAARDMARAGVSIPEIMQAGGWTNVNIVMNYIRNLDSETGAMVRLLEDGD", "modifications": "His tag", "notes": "His-tagged recombinant Cre DNA recombinase without TAT or CPP5s"}}, "system": "Tex-loxP-EG cells", "test": "Protein transduction: delivery of Cre recombinase read out by GFP expression", "assay_type": "cell-based, mouse", "conditions": "5 or 10 µM protein, 3 h, GFP measured 48 h after, FACS, three independent experiments", "description": "To determine the protein-transduction activity of VPTLK and KLPVM, these peptides were added to the N-terminus of Cre DNA recombinase and the resulting CPP5-Cre fusion proteins were added separately to the culture medium of Tex-loxP-EG cells, which are engineered to express GFP through Cre-dependent excision of a chromosomal lox P site. This method was developed by S. Dowdy’s group to determine the protein-transduction activity of TAT peptide.\nFirst, cells were cultured for 3 h in serum-free medium in the presence of 5 or 10 µM Cre, TAT-Cre, KLPVM-Cre, or VPTLK-Cre. GFP expression was measured 48 h after the incubation with the CPP-Cre proteins. […]\nFigure 5 Protein-Transduction activity (PTDs) of VPTLK and KLPVM determined by the delivery of Cre recombinase into cells. a. […] The delivery of Cre into Tex-lox P-EG cells was evaluated by GFP expression as previously reported. GFP expression was analyzed 48 h after the incubation of cells with Cre proteins. b and c. […] Mean GFP fluorescence intensity of Tex-loxP-EG cells incubated with 5 or 10 μM Cre recombinant proteins under serum-free conditions. […]\nTex lox P EG cells were established from thymoma cells of p53-deficient mice, which were genetically engineered to have a lox P site flanking the EGFP gene. […] Expression of GFP was analyzed by fluorescence microscopy and by FACS [11].", "data": [{"molecule": "B1", "values": [{"measurement": "GFP expression induced by Cre protein, serum-free medium", "value": "did not"}]}]}
